Molecular target: GP55 (ORF55-encoded replicase of lactococcal phage 1706), full length (lactococcal phage 1706)
Assay: SEC-MALS; Superdex 200 Increase 10/300 GL, 20 mM Tris-HCl pH 8.0, 100 mM NaCl, 1 mM TCEP, 0.5 ml/min; Wyatt Dawn Heleos II; self-association of the Ni-NTA-purified protein

Q: “GP55 (ORF55-encoded replicase of lactococcal phage 1706), full length (enzyme)” was tested. Which stoichiometry N did it give?
A: 2

Reference: publication PMC12205980
